The target in assay [1] is T1, Human OSM (human, UniProt P13725 26-221).
T1 construct: Recombinant human OSM; also called hOSM; human Oncostatin M
T1 sequence: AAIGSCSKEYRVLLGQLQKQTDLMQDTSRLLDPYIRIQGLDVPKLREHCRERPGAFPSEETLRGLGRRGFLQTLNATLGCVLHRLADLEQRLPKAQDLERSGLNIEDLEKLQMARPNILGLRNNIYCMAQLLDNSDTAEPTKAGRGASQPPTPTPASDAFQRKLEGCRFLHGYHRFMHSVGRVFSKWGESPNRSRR
Briefly: SPR (ProteOn XPR36 or Biacore T100), captured supernatant, OSM as analyte; grey cell: 3x decrease in binding. Here is the method: The initial kinetic analyses for the CDRH3 screen were carried out on the ProteOn XPR36 (Biorad Laboratories) and certain supernatants were selected for more accurate kinetic analysis on the BiaCore T100.
For the ProteOn analysis, anti-human IgG (GE Healthcare/Biacore BR-1008-39) was coupled to a GLM chip (Biorad Laboratories 176-5012) by primary amine coupling. The CDRH3 variants were captured directly on to this surface and recombinant human OSM was passed over the captured antibody surface at 256, 64, 16, 4 and 1 nM, with a buffer injection alone (i.e. 0 nM) used to double reference the binding curves. Following the OSM binding event, the capture surfaces were regenerated: with 3M MgCl₂ the regeneration removed the previously captured antibody ready for another cycle of capture and binding analysis. The data was then fitted to the 1:1 model (with mass transport) inherent to the ProteOn analysis software. The run was carried out using HBS-EP (Biacore/GE-Healthcare BR-1006-69) and the analysis temperature was 25° C.
A similar method was used for analysis of constructs using the Biacore T100, anti-human IgG (GE Healthcare/Biacore BR-1008-39) was coupled to a CM5 chip (GE Healthcare/Biacore BR-1006-68) by primary amine coupling, antibodies were captured on this surface and recombinant human OSM was passed over the captured antibody surface at 256, 64, 16, 4 and 1 nM, with a buffer injection alone (i.e. 0 nM) used to double reference the binding curves. Regeneration was by using pulses of 3M 3M MgCl₂ or 100 mM phosphoric acid or using both reagents. The data was fitted to the 1:1 model inherent to the Biacore T100 analysis software. The run was carried out using HBS-EP (Biacore/GE-Healthcare BR-1006-69) and the analysis temperature was 25° C.
On the technique in general: SPR reads the build-up and loss of mass on a sensor chip optically.

The target in assay [2] is T1, Human OSM. Briefly: BIAcore kinetics, transfection supernatant.
Assay [3] has as its target T2, Cynomolgus OSM (cynomolgus, UniProt A0A2K5VPC6 26-221).
T2 construct: also called Cyno OSM; cynomolgus macaque OSM
T2 sequence: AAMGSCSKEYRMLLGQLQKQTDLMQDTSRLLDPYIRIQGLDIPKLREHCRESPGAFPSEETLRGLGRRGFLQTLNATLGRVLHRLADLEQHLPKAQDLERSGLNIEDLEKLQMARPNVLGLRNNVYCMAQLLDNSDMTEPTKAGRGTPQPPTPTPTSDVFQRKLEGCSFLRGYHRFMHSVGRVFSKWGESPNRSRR
Briefly: BIAcore kinetics, purified antibody.

Assay [4] addresses T1, Human OSM. Briefly: BIAcore kinetics, purified antibody.
Assay [5] addresses T2, Cynomolgus OSM. Briefly: cell-based or functional assay.
For assay [6], the target named is T1, Human OSM. Briefly: cell-based or functional assay.

The values that follow come from US20130251724A1 (GlaxoSmithKline, published 2013).

Where a chain is given by its changes, count along the chain named. Names and notes keep the numbering of the source. Values joined by “and” are separate entries in the source; they are usually repeats but may differ in a detail not shown here. Equal entries are not always repeated.

By Kd is commonly meant the equilibrium constant for the complex coming apart. Lower therefore signals a tighter complex. One may read the koff as a measure of how fast the partners let go of each other. Lower therefore signals a long-lived complex. What is called kon is a measure of how fast the partners come together.

B1: Pos 100B Gln (antibody, V domains shown)
VH: EVQLVESGGGLVQPGGSLRLSCAASGFTFSSYAMSWVRQAPGKGLEWVATISDGGSFTYYLDNVRGRFTISRDNAKNSLYLQMNSLRAEDTAVYYCARDVGHTTFQYFDVWGRGTLVTVSS
VL: DIVMTQSPDSLAVSLGERATINCRASKSVSAAGYNFMHWYQQKPGQPPKVLIYYASNLESGVPDRFSGSGSGTDFTLTISSLQAEDVAVYYCLHSREFPFTFGGGTKVEIKR
notes: also called CDRH3 W100B>Q
Regarding B1, in the assay with Human OSM [1], the Kd worked out at 3.35 nM.

B2: Humanised 10G8 H0L4 (antibody, V domains shown)
VH: B1 VH with S31N, Q106W
VL: DIVMTQSPDSLAVSLGERATINCRASKSVSAAGYNFMHWYQQKPGQPPKVLIYYASNLESGVPDRFSGSGSGTDFTLTISSLQAEDVVVYYCLHSREFPFTFGGGTNVEIK
On to B2, for which the Kd with Human OSM [2] came out at 0.268 nM; with Cynomolgus OSM [3], 0.242 nM; with Human OSM [4] it was 0.374 nM. Also, the values for the koff in the assay with Human OSM [2], with Cynomolgus OSM [3] and with Human OSM [4] were 0.000111 s⁻¹, 0.000101 s⁻¹ and 0.00014 s⁻¹, respectively. The kon with Human OSM [2] turned out to be 413000 M⁻¹ s⁻¹; with Cynomolgus OSM [3] it was 418000 M⁻¹ s⁻¹; with Human OSM [4] it was 374000 M⁻¹ s⁻¹. In addition, the “KB cell neutralisation assay, mean IC50” value in the assay with Cynomolgus OSM [5] is 0.012 µg/ml and 49 pM; with Human OSM [6], 0.018 µg/ml and 118 pM.

B3: Pos 100C Gln (antibody, V domains shown)
VH: B1 VH with Q106W, Y107Q
VL: B1 VL
notes: also called CDRH3 Y100C>Q
Molecule B3 yielded a Kd with Human OSM [1] of 1.17 nM.

B4: Pos 100C Leu (antibody, V domains shown)
VH: B1 VH with Q106W, Y107L
VL: B1 VL
notes: also called CDRH3 Y100C>L
Take B4: binding with Human OSM [1] was characterised by a dissociation constant (Kd) of 0.424 nM.

B5: Humanised 10G8 H1L4 (antibody, V domains shown)
VH: B1 VH with V2M, S31N, Q106W
VL: B2 VL
On to B5, for which the Kd with Human OSM [2] worked out at 0.344 nM; in the assay with Cynomolgus OSM [3], 0.264 nM; with Human OSM [4], 0.37 nM. The koff was determined as 0.00013 s⁻¹ with Human OSM [2], 0.000111 s⁻¹ with Cynomolgus OSM [3] and 0.000135 s⁻¹ with Human OSM [4]. Further, the results for the kon in the assay with Human OSM [2], with Cynomolgus OSM [3] and in the assay with Human OSM [4] were 377000 M⁻¹ s⁻¹, 421000 M⁻¹ s⁻¹ and 365000 M⁻¹ s⁻¹, respectively. The “KB cell neutralisation assay, mean IC50” value is 0.011 µg/ml and 10 pM with Cynomolgus OSM [5]; 0.016 µg/ml and 107 pM in the assay with Human OSM [6].

B6: Humanised 10G8 H2L4 (antibody, V domains shown)
VH: B1 VH with S31N, Q106W, R113S
VL: B2 VL
In the case of B6, the Kd in the assay with Human OSM [2] is 0.226 nM; in the assay with Cynomolgus OSM [3], 0.205 nM; in the assay with Human OSM [4], 0.356 nM. Moreover, the koff with Human OSM [2] is 0.000101 s⁻¹; with Cynomolgus OSM [3], 9.01e-05 s⁻¹; with Human OSM [4], 0.000135 s⁻¹. The kon stood at 448000 M⁻¹ s⁻¹ with Human OSM [2], 441000 M⁻¹ s⁻¹ in the assay with Cynomolgus OSM [3] and 380000 M⁻¹ s⁻¹ with Human OSM [4]. In addition, the “KB cell neutralisation assay, mean IC50” value is 0.016 µg/ml and 58 pM with Cynomolgus OSM [5]; 0.022 µg/ml and 147 pM with Human OSM [6].

B7: Pos 101 Ala (antibody, V domains shown)
VH: B1 VH with Q106W, D109A
VL: B1 VL
notes: also called CDRH3 D101>A
In the assay with Human OSM [1], B7 returned a Kd of 1.55 nM.

B8: Humanised 10G8 H2L1 (antibody, V domains shown)
VH: B1 VH with S31N, Q106W, R113S
VL: B2 VL with V88A, N107K
For B8, the values for the Kd with Human OSM [2], with Cynomolgus OSM [3] and with Human OSM [4] were 0.286 nM, 0.299 nM and 0.365 nM, respectively. Moreover, the koff in the assay with Human OSM [2] is 0.000113 s⁻¹; with Cynomolgus OSM [3], 0.000124 s⁻¹; with Human OSM [4], 0.00014 s⁻¹. Besides, the kon is 394000 M⁻¹ s⁻¹ in the assay with Human OSM [2], 414000 M⁻¹ s⁻¹ in the assay with Cynomolgus OSM [3] and 383000 M⁻¹ s⁻¹ with Human OSM [4]. In addition, the “KB cell neutralisation assay, mean IC50” value with Cynomolgus OSM [5] was 0.013 µg/ml and 14 pM; with Human OSM [6] it was 0.014 µg/ml and 93 pM.

B9: Pos 101 Gln (antibody, V domains shown)
VH: B1 VH with Q106W, D109Q
VL: B1 VL
notes: also called CDRH3 D101>Q
In the assay with Human OSM [1], B9 registered a Kd of 1.1 nM.
